Results published in patent publication US20170226204A1 (PERONGEN BIOTHERAPEUTICS SUZHOU, published 2017).

target: T1, human CD7 molecule (human, UniProt P09564 26-240); assay: phage whole-cell ELISA, 293T-CD7+ against 293T-CD7- cells; positive when OD is 2.5 times that of the control well
T1 construct: whole, on cells; also called CD7 protein
T1 sequence (looked up): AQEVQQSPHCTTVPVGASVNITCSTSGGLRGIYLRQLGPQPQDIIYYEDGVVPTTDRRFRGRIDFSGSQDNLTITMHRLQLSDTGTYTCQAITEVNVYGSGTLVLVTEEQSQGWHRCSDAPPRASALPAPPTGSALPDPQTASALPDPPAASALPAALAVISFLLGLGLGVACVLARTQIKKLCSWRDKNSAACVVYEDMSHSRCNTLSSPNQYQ

| Binder | binding result |
| --- | --- |
| anti-human CD7 nanobody clone 1 (VHH) VHH: DVQLQESGGGSVQAGGSLRLSCPASGYTFSHYCMGWNRQAPGKEREEVATIDTDDTPTYADSVMGRFTISRDNANNALYLQMNDLKPEDTSMYYCAIWMKLRGSCHDRRLEVRGQGTQVTVSI | binds |
| anti-human CD7 nanobody clone 3 (VHH) VHH: DVQLQESGGGSVQAGGSLRLSCPASGYTFSHYCMGWLRQAPGKEREEVATIDTDSTPTYADSVMGRFTISRDNANNALYLQMNDLKPEDTSMYYCATWMGLRGSCHDRRLEVRGQGTQVTVSI | binds |
| anti-human CD7 nanobody clone 4 (VHH) VHH: DVQLQESGGGSVQAGGSLRLSCAASGYTTSRLCMAWFRQFPGKEREGVANVRLGGYKPAYADSVKGRFTLSEDSAKNTVYLEMNSLQPEDTAMYYCAADPGGGGSCPVALVRGDFDYWGQGTQVTVSI | binds |
| anti-human CD7 nanobody clone 6 (VHH) VHH: DVQLQESGGGSVQAGGSLRLSCAASGYTYSTYCMGWFRQAPGKEREGVATIDSDGSTSYADSVKGRFTISRDNAKNTLNLQMSSLKPEDTAMYYCAARFGPMGCVDLSTLSFGHWGQGTQVTVSI | binds |
